Test results published in PMC4201622.

What was measured:
[1] = target: RPA heterotrimer (RPA70/RPA32/RPA14), full length (UniProt P27694;P15927;P35244 1-616;1-270;1-121); assay: EMSA
[2] = target: RPA70 DBD-F (N-terminal domain) fused to MBP (UniProt P27694 1-120); assay: EMSA
Sequence of RPA70 DBD-F (N-terminal domain) fused to MBP (P27694 1-120): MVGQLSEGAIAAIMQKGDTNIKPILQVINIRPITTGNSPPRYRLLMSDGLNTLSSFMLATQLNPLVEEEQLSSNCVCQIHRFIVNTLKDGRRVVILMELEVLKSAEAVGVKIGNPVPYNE

Sequence of RPA heterotrimer (RPA70/RPA32/RPA14), full length (P27694 whole entry, chain 1 of 3, the tested form may be a part): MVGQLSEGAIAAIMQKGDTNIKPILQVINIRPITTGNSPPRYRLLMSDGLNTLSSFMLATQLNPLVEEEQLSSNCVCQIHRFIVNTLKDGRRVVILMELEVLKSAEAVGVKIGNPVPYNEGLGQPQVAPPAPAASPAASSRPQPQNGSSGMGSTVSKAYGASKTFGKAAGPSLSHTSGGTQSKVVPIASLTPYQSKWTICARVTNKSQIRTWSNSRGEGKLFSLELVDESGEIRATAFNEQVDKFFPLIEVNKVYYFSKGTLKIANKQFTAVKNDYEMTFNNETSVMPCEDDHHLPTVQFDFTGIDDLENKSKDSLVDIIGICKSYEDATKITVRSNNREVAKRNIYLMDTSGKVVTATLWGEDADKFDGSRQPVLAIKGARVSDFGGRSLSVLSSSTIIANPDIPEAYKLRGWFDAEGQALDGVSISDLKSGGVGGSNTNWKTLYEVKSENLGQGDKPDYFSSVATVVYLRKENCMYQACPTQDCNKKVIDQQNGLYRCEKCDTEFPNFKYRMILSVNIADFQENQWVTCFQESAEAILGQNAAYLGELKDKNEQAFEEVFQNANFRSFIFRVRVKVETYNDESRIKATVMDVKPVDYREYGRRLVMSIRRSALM
Sequence of RPA heterotrimer (RPA70/RPA32/RPA14), full length (P15927 whole entry, chain 2 of 3, the tested form may be a part): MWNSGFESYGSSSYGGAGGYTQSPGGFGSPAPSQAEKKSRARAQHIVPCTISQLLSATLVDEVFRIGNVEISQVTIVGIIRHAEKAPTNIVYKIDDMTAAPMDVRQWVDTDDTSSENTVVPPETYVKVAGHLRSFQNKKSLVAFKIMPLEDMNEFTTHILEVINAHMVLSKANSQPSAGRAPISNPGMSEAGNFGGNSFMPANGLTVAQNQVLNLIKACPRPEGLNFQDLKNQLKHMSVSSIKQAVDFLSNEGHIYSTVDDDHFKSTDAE
Sequence of RPA heterotrimer (RPA70/RPA32/RPA14), full length (P35244 whole entry, chain 3 of 3, the tested form may be a part): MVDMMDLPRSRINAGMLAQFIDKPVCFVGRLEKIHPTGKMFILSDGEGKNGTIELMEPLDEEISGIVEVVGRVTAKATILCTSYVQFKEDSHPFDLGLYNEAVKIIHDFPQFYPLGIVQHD

Binder: TTTTTTTTTTTTTTTTTTTTTTTTTTTTTT (ssDNA) [polyT 30mer]
- binding result [1]: binds
- binding result [2]: binds
